Results published in the RNAGym collection of RNA variant scans (doi:10.1073/pnas.2313332121).
Fewer inactive variants are shown than the library holds.

B1: TPR 5TU (parent)
chain: GGAUCUUCUCGAUCUAACAAAAAAGACAAAUCUGCCACAAAGCUUGAGAGCAUCUUCGGAUGCAGAGGCGGCAGCCUUCGGUGGCGCGAUAGCGCCAACGUUCUCAACUAUGACACGCAAAACGCGUGCUCCGUUGAAUGGAGUUUAUCAUG

Variants of: B1
Assay: polymerase ribozyme fitness, log enrichment relative to wild type (log ratio); higher = more active; in vitro selection for triplet polymerase activity
In short: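 Fitness compares each genotype's enrichment to that of the wild type on a logarithmic scale, averaging replicates with inverse-variance weights. The logarithm is base 2. Enrichment came from Illumina sequencing of input and output libraries after one triplicate round of in vitro selection, which included frozen incubation at −7 °C, of PCR-built, transcribed mutant libraries of each subunit of a heterodimeric triplet polymerase ribozyme. Only genotypes with ≥10 input reads and ≥1 read per output were kept.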

| Variant | polymerase ribozyme fitness (log ratio) |
| --- | --- |
| C43A G58C G81C C95U C96A A122U G126C G143C | ≤ -4.2 |
| C43G G84A C95A A106U C118G G143U | ≤ -4.2 |
| C43A C57U C76G C85A G86A G140A | ≤ -4.2 |
| U45A U55G U56G C87U G92C | -3.98 |
| U45A A47C | -3.93 |
| U45A U82A A106G A122G U148G | ≤ -4.2 |
| G42U U55G G59A G88U C96G A98G C118G | ≤ -4.2 |
| U44A C76A U82G G100A C103G A137G | ≤ -4.2 |
| U45A A60G G94A C95G U144C U151G | ≤ -4.2 |
| C43U G68A G86U | ≤ -4.2 |
| U44G G88C C108G U144C C149U | ≤ -4.2 |
| U45A C54A C95A A113G C129A | ≤ -4.2 |
| U45A U77G G83C U146A | ≤ -4.2 |
| U45C A49C G70C G83C A137C U144C | ≤ -4.2 |
| U44G U45G C72G U144C A147G | ≤ -4.2 |
| U44G A60U C99G U111G G141C | ≤ -4.2 |
| U45A C85A C93U C96U C118A C132A | ≤ -4.2 |
| C43A U53A C57A C95U | ≤ -4.2 |
| C43U G50U U55A C76U G136A G152U | ≤ -4.2 |
| C43U C54A U55C C85U C99G A147G | ≤ -4.2 |
| G42C U56A G84U A121C | ≤ -4.2 |

| Variant | polymerase ribozyme fitness (log ratio) |
| --- | --- |
| U44A C87A G126U | ≤ -4.2 |
| U44G C54U C85G G117U A122U | ≤ -4.2 |
| C43G G50U U61C G86A C95U C125U U146G | ≤ -4.2 |
| C43A A49U G74A G86C C93A C105U U144A | ≤ -4.2 |
| U44G A73U C85U U109G | ≤ -4.2 |
| C43U C95A | -4.15 |
| G42U U56A G58A C76U C95G A98G | ≤ -4.2 |
| C43U G84U A113U | ≤ -4.2 |
| U44A C72G C79A A150C | ≤ -4.2 |
| U45G C54U A119U U146G | -2.19 |
| G42C U44G G88A A97C | ≤ -4.2 |
| U44C G50U U101G C131U U139C C149U | ≤ -4.2 |
| U44G C54G C76G C85A | ≤ -4.2 |
| C43U A66G C105A | ≤ -4.2 |
| U45A G92U | -2.75 |
| U45A G92C | -3.75 |
| U44G G48U G86A G100C C105A G126A U134C | ≤ -4.2 |
| G42U U44A C85A C96G A115C C129A | ≤ -4.2 |
| U44G G143C | ≤ -4.2 |
| C43U A47U G59A C75A C93U G126C G133A | ≤ -4.2 |
| U44A C76U | -4.19 |

| Variant | polymerase ribozyme fitness (log ratio) |
| --- | --- |
| U45A A47C U61A G92A C114A C123G U146G | ≤ -4.2 |
| C43U C57G G70A A89G C93U | ≤ -4.2 |
| U44A A47U C72G G86C A91C | ≤ -4.2 |
| U44A G50A C79A C99U U102G C108U | ≤ -4.2 |
| C43G G94A G133U A137U | -4.11 |
| C43A A52C C75U U90G C95U C96G C114G U144G | ≤ -4.2 |
| C43U U55G A60U U109A U145C U146C | ≤ -4.2 |
| G42U A91G G128U G133A | ≤ -4.2 |
| U45A A52C | ≤ -4.2 |
| U45A G86A A142G | ≤ -4.2 |
| C43A G58C C76A U102C G141A | ≤ -4.2 |
| C43A A52G C69U A91U C96U A106U | ≤ -4.2 |
| U45A A47U G80U U90A | ≤ -4.2 |
| C43A A66G U77A A97G U146A | ≤ -4.2 |
| C43A U44G A64C C118G C131G A137G G152U | ≤ -4.2 |
| C43U G86U | -4.15 |
| U44G U135A | -3.83 |
| C43G G50C G62A G84A G92C | ≤ -4.2 |
| G42U A73G U78G C93A U146A | ≤ -4.2 |
| U45A C54U U61A C85U | ≤ -4.2 |
| U45A A47U G65C A66U G86C C87G C131G | ≤ -4.2 |

| Variant | polymerase ribozyme fitness (log ratio) |
| --- | --- |
| U45G C54A U55A C85G G133U | ≤ -4.2 |
| U45A C51A G84A | ≤ -4.2 |
| U45A A121G C131G G140U | ≤ -4.2 |
| C43U U56A C87A G152U | ≤ -4.2 |
| C43G C54A U55A A73G G74C G124C | ≤ -4.2 |
| U45G C87U | -1.32 |
| U44G A47C A66G G67A C87A C96G U145A | ≤ -4.2 |
| U45A A49C G84A | ≤ -4.2 |
| U44C G58A A64G C93G A119G | ≤ -4.2 |
| U44G G59A A60C G83A C95G C103G | ≤ -4.2 |
| U45A G84A | -3.44 |
| U45A A115C | ≤ -4.2 |
| C43A C63U U90A | ≤ -4.2 |
| G42C U55A C85U | ≤ -4.2 |
| U44G C75G G88C | ≤ -4.2 |
| U45A C96U | -2.86 |
| U45A C96A | -2.56 |
| U45A C72A G86U C99U | ≤ -4.2 |
| C43A G48U A60G G83C C87U G126U A138C | ≤ -4.2 |
| U44A U82A | -4.18 |
